Test results: US20240391954A1, “MC4R AGONIST PEPTIDES” (The Regents of the University of Michigan, priority 2021, published 2024)
Like-named read-outs stand apart in the source and are kept apart here. Positions of bridges follow the written chain, without caps; N, C: chain ends. Non-standard residues stand in square brackets, D forms with d. Phe(4-Br) = N[C@@H](Cc1ccc(Br)cc1)C(=O)O; dPhe(4-Br) = N[C@H](Cc1ccc(Br)cc1)C(=O)O; dPhe(4-I) = N[C@H](Cc1ccc(I)cc1)C(=O)O; d(αMeF) = C[C@@](N)(Cc1ccccc1)C(=O)O; d(hPhe) = N[C@H](CCc1ccccc1)C(=O)O; NMeR = CN[C@@H](CCCNC(=N)N)C(=O)O; Cit = NC(=O)NCCC[C@H](N)C(=O)O; Nle = CCCC[C@H](N)C(=O)O

Legend:
Experiment in all cases: cell-based or functional assay
[1] = biological target: T1, human MC4R receptor (human, UniProt P32245 1-332)
T1 sequence (P32245 whole entry): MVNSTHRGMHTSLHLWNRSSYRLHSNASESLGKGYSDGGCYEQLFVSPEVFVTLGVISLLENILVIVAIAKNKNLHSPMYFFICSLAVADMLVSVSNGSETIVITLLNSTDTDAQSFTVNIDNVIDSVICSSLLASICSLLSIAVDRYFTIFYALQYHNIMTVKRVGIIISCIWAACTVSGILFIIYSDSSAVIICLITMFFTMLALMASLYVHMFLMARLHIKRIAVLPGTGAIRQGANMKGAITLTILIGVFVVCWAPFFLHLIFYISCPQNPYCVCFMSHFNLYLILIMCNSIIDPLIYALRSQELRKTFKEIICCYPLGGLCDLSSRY

[2] = biological target: T2, human MC3R (human, UniProt P41968 1-323)
T2 sequence (P41968 whole entry): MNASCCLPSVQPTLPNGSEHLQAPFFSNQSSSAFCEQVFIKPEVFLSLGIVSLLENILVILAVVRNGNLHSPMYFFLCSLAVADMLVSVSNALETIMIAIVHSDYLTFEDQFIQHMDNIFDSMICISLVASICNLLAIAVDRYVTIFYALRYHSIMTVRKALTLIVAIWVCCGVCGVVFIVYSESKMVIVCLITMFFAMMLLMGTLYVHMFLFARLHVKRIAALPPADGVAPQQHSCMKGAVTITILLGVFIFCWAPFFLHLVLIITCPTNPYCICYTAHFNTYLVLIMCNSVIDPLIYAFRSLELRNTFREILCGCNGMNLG

[3] = biological target: T1, human MC4R receptor; remark: listed apart in the source
[4] = biological target: T2, human MC3R; remark: listed apart in the source
[5] = biological target: T1, human MC4R receptor; remark: listed apart in the source
[6] = biological target: T1, human MC4R receptor; remark: listed apart in the source

Binder	% max activation [1]	cAMP EC50 [1]	% max activation [2]	cAMP EC50 [2]	further results
Ac-RC[dA]R[dPhe(4-Br)]R[dW]C-NH2 (disulfide 2-8) [CTX-1214]	74%	2.6 nM	15%	4.1 nM	
Ac-RC[dA]R[dF][Cit][dW]C-NH2 (disulfide 2-8) [CTX-1281]					% max activation [3]: 92%; cAMP EC50 [3]: 97 nM; % max activation [4]: 44%; cAMP EC50 [4]: 28 nM; MC4R selectivity vs MC1R [5]: 0.44; MC4R selectivity vs MC3R [5]: 0.29
Ac-R[Nle]CR[dPhe(4-Br)]R[dW]C-NH2 (disulfide 3-8; SMILES CCCC[C@H](NC(=O)[C@H](CCCNC(=N)N)NC(C)=O)C(=O)N[C@H]1CSSC[C@@H](C(N)=O)NC(=O)[C@@H](Cc2c[nH]c3ccccc23)NC(=O)[C@H](CCCNC(=N)N)NC(=O)[C@@H](Cc2ccc(Br)cc2)NC(=O)[C@H](CCCNC(=N)N)NC1=O) [CTX-1613]		1.9 nM		4 nM	
Ac-RC[dA]R[Phe(4-Br)]R[dW]C-NH2 (disulfide 2-8) [CTX-1215]	56%	592 nM	2.1%	27 nM	MC4R selectivity vs MC1R [6]: 0.07; MC4R selectivity vs MC3R [6]: 0.05
Ac-RC[dA]R[dPhe(4-Br)]R[dW]CKPV-NH2 (disulfide 2-8; SMILES CC(=O)N[C@@H](CCCNC(=N)N)C(=O)N[C@H]1CSSC[C@@H](C(=O)N[C@@H](CCCCN)C(=O)N2CCC[C@H]2C(=O)N[C@H](C(N)=O)C(C)C)NC(=O)[C@@H](Cc2c[nH]c3ccccc23)NC(=O)[C@H](CCCNC(=N)N)NC(=O)[C@@H](Cc2ccc(Br)cc2)NC(=O)[C@H](CCCNC(=N)N)NC(=O)[C@@H](C)NC1=O) [CTX-1216]			11%	3.5 nM	
Ac-RC[dA]R[d(hPhe)]R[dW]C-NH2 (disulfide 2-8) [CTX-1277]		429 nM		45 nM	
Ac-[Nle]CH[dPhe(4-I)]R[dW]C-NH2 (disulfide 2-7; SMILES CCCC[C@H](NC(C)=O)C(=O)N[C@H]1CSSC[C@@H](C(N)=O)NC(=O)[C@@H](Cc2c[nH]c3ccccc23)NC(=O)[C@H](CCCNC(=N)N)NC(=O)[C@@H](Cc2ccc(I)cc2)NC(=O)[C@H](Cc2c[nH]cn2)NC1=O) [CTX-1234]			18%	3.4 nM	
Ac-RC[dA]R[dF][NMeR][dW]C-NH2 (disulfide 2-8; SMILES CC(=O)N[C@@H](CCCNC(=N)N)C(=O)N[C@H]1CSSC[C@@H](C(N)=O)NC(=O)[C@@H](Cc2c[nH]c3ccccc23)NC(=O)[C@H](CCCNC(=N)N)N(C)C(=O)[C@@H](Cc2ccccc2)NC(=O)[C@H](CCCNC(=N)N)NC(=O)[C@@H](C)NC1=O) [CTX-1284]					% max activation [3]: 91%; cAMP EC50 [3]: 128 nM; % max activation [4]: 45%; cAMP EC50 [4]: 1040 nM; MC4R selectivity vs MC1R [5]: 0.15; MC4R selectivity vs MC3R [5]: 8.11
Ac-RC[dA]R[dPhe(4-Br)]R[dW]CK-NH2 (disulfide 2-8; SMILES CC(=O)N[C@@H](CCCNC(=N)N)C(=O)N[C@H]1CSSC[C@@H](C(=O)N[C@@H](CCCCN)C(N)=O)NC(=O)[C@@H](Cc2c[nH]c3ccccc23)NC(=O)[C@H](CCCNC(=N)N)NC(=O)[C@@H](Cc2ccc(Br)cc2)NC(=O)[C@H](CCCNC(=N)N)NC(=O)[C@@H](C)NC1=O) [CTX-1218]	77%		16%		MC4R selectivity vs MC1R [6]: 1; MC4R selectivity vs MC3R [6]: 1.85
Ac-RC[dA]R[d(αMeF)]RWC-NH2 (disulfide 2-8; SMILES CC(=O)N[C@@H](CCCNC(=N)N)C(=O)N[C@H]1CSSC[C@@H](C(N)=O)NC(=O)[C@H](Cc2c[nH]c3ccccc23)NC(=O)[C@H](CCCNC(=N)N)NC(=O)[C@@](C)(Cc2ccccc2)NC(=O)[C@H](CCCNC(=N)N)NC(=O)[C@@H](C)NC1=O) [CTX-1278]					% max activation [3]: 105%; cAMP EC50 [3]: 36 nM; % max activation [4]: 86%; cAMP EC50 [4]: 418 nM; MC4R selectivity vs MC1R [5]: 1.13; MC4R selectivity vs MC3R [5]: 12
Ac-RC[dA]R[d(hPhe)]R[dW]C-NH2 (disulfide 2-8; SMILES CC(=O)N[C@@H](CCCNC(=N)N)C(=O)N[C@H]1CSSC[C@@H](C(N)=O)NC(=O)[C@@H](Cc2c[nH]c3ccccc23)NC(=O)[C@H](CCCNC(=N)N)NC(=O)[C@@H](CCc2ccccc2)NC(=O)[C@H](CCCNC(=N)N)NC(=O)[C@@H](C)NC1=O) [CTX-1239]		249 nM		74 nM	
Ac-RC[dA][Cit][dF]R[dW]C-NH2 (disulfide 2-8) [CTX-1286]					% max activation [3]: 91%; cAMP EC50 [3]: 262 nM; % max activation [4]: 24%; cAMP EC50 [4]: 568 nM; MC4R selectivity vs MC1R [5]: 3.4; MC4R selectivity vs MC3R [5]: 2.16
Ac-RC[dA]R[dPhe(4-Br)]R[dW]CKP-NH2 (disulfide 2-8; SMILES CC(=O)N[C@@H](CCCNC(=N)N)C(=O)N[C@H]1CSSC[C@@H](C(=O)N[C@@H](CCCCN)C(=O)N2CCC[C@H]2C(N)=O)NC(=O)[C@@H](Cc2c[nH]c3ccccc23)NC(=O)[C@H](CCCNC(=N)N)NC(=O)[C@@H](Cc2ccc(Br)cc2)NC(=O)[C@H](CCCNC(=N)N)NC(=O)[C@@H](C)NC1=O) [CTX-1217]	69%	1.5 nM	13%	4 nM	MC4R selectivity vs MC1R [6]: 1.12; MC4R selectivity vs MC3R [6]: 2.73
Ac-RC[dA]R[Phe(4-Br)]RWC-NH2 (disulfide 2-8) [CTX-1212]	55%	393 nM	0.1%	28 nM	MC4R selectivity vs MC1R [6]: 0.07; MC4R selectivity vs MC3R [6]: 0.07
Ac-RCA[Cit][dF]RWC-NH2 (disulfide 2-8) [CTX-1287]					% max activation [3]: 94%; cAMP EC50 [3]: 0.77 nM; % max activation [4]: 43%; cAMP EC50 [4]: 50 nM; MC4R selectivity vs MC1R [5]: 281; MC4R selectivity vs MC3R [5]: 66
Ac-R[Nle]CH[dPhe(4-Br)]RWC-NH2 (disulfide 3-8; SMILES CCCC[C@H](NC(=O)[C@H](CCCNC(=N)N)NC(C)=O)C(=O)N[C@H]1CSSC[C@@H](C(N)=O)NC(=O)[C@H](Cc2c[nH]c3ccccc23)NC(=O)[C@H](CCCNC(=N)N)NC(=O)[C@@H](Cc2ccc(Br)cc2)NC(=O)[C@H](Cc2c[nH]cn2)NC1=O) [CTX-1229]	31%	18 nM	16%	3.5 nM	
Ac-R[Nle]CR[dPhe(4-Br)]RWC-NH2 (disulfide 3-8; SMILES CCCC[C@H](NC(=O)[C@H](CCCNC(=N)N)NC(C)=O)C(=O)N[C@H]1CSSC[C@@H](C(N)=O)NC(=O)[C@H](Cc2c[nH]c3ccccc23)NC(=O)[C@H](CCCNC(=N)N)NC(=O)[C@@H](Cc2ccc(Br)cc2)NC(=O)[C@H](CCCNC(=N)N)NC1=O) [CTX-1230]		1.4 nM		3.9 nM	
Ac-R[Nle]CR[dPhe(4-Br)]RWC-NH2 (disulfide 3-8; SMILES CCCC[C@H](NC(=O)[C@H](CCCNC(=N)N)NC(C)=O)C(=O)N[C@H]1CSSC[C@@H](C(N)=O)NC(=O)[C@H](Cc2c[nH]c3ccccc23)NC(=O)[C@H](CCCNC(=N)N)NC(=O)[C@@H](Cc2ccc(Br)cc2)NC(=O)[C@H](CCCNC(=N)N)NC1=O) [CTX-1612]		2 nM		4.5 nM	
Ac-R[Nle]CR[dPhe(4-Br)]R[dW]C-NH2 (disulfide 3-8; SMILES CCCC[C@H](NC(=O)[C@H](CCCNC(=N)N)NC(C)=O)C(=O)N[C@H]1CSSC[C@@H](C(N)=O)NC(=O)[C@@H](Cc2c[nH]c3ccccc23)NC(=O)[C@H](CCCNC(=N)N)NC(=O)[C@@H](Cc2ccc(Br)cc2)NC(=O)[C@H](CCCNC(=N)N)NC1=O) [CTX-1232]		2.4 nM		6 nM	
